Assay: soluble on expression in E. coli; label from the status in PepcDB or PDB records

Sequence | soluble on expression in E. coli
AHHHHHHGSKFNEFKTPQIDPIFDLYVAYGYVESLIRGGAKEATLIPHGASYLIQTDVSNEEFRHGLVDALSEMLSLHIALARHSPREGGKLVSDADFSAGANINNVYWDSVPRNLEKVMKDLEKKRSVKGTATIPITLMPSAGKYMLKHFGVQGGNPIKVDLLNYALAWVGFHYYTPYIKYAKGDTTWIHIYQIAPVEEVDMISILSLKDLKMHLPHYYESNLDFLINRRLALLYHLLHSESLGALELFTEKEFVIHSYTLERSGNNQAIRSFEEEEIGKLMDFLWKLKRRDFYHAIKFIDDLLKKATEGALALIDAIMNERLEGFYTALKLGKKAGVVSSREIVAALEDIICER | not soluble
MNSPNILLDSFKIALVKKDSKQAFSLIERLSLEQIKSLDLDALLSLKEMIAQSIELLEKEKEELQLQMHKAKKIQKFLS | not soluble
EETDESNDMRPLFDTILKYTPAPSGSADETLQLQISQLDYDNYTGRLGIGRILNGRIKPGQTVAVMNHDQQIAQGRINQLLGFKGLERVPLEEAEAGD | not soluble
MGSDKIHHHHHHMLDSYIKRIVIHQFSPNDTELLLSDRLVSITPRIDEYFRKKLAKVFSDEAKRGQFEANNTFFTTIGDDLLETSVTIAQLWKEAFVISEDQKTNDLVFVQFDKDGEPFFAFLRIALKEQFAHLSDNYEHPFTVTQNNLPSPTQTPDEALVINLKSGQYYLIEKRVKHNGSFANYFSEHLLKVTPEQSVKKSIKMIEQTAQKIAEHFNQDDFTFQSKMKSTLFKQLEADDVLSPEKLADQLFDDNLTARLTFVDQVKDVIPEPIKISDIEHSRQIKKLENQKLSLSNGIELTVPNAIYQDAEAVEFLLNDDGTYSILIKNIEDIKTK | not soluble
MGHHHHHHSHMIKLENELLLVEMKEAGAELTRIFHKDTKLEYLWNADSTFWGRHSPVLFPTVGRLVEDTYFVDGNPYHLGQHGFARDRDFKVVEHTENAVRFELDADEDSLTIYPYKFKLSIIYTIEKDSVAVSYEVENTDNKRIYFSIGAHPAFNLPLADGTTFEDYYLDFGTEENLETLCLEGPYRSGKIEKVVNEPARYLPLSYDLFKNDALIFEGLKQKEITIKSDKTPHFVKVSFPEFPFVGVWTAKAGTPFLCIEPWYGIADGAGKSVELRDKAGIEHLEPEAVFASEYKITIG | soluble
MAGEGQIRLTDSCVQRLLEITEGSEFLRLQVEGGGCSGFQYKFSLDTVINPDDRVFEQGGARVVVDSDSLAFVKGAQVDFSQELIRSSFQVLNNPQAQQGCSCGSSFSIKL | soluble
MSLTRHQRLFVWTVTHGFREYGVAQQKTHHNTMSPEAAIEWVVRQEPGIFIFKDLHPFISSPAVTRWLREAIASFKGTEKAIILMSPYQETPIELEKDVVVLDFALPDLVTLDGVLGQQLGKSRHALGEDSREKLLKAALGLTKDEAEKVYRKAYVKAGQLTEGEVEIVLSEKKQMIRRNEGHHHHHH | not soluble
AHIVYDDVRDLKAIIQALLKLVDEALFDIKPEGIQLVAIDKAHISLIKIELPKEMFKEYDVPEEFKFGFNTQYMSKLLKAAKRKEEIIIDADSPEVVKLTLSGALNRVFNVNNIEVLPPEVPEVNLEFDIKATINASGLKNAIGEIAEVADTLLISGNEEKVVVKGEGENKVEVEFSKDTGSLADIEFNKESSSAYDVEYLNDIISLTKLSDYVKVAFADQKPMQLEFNMEGGGKVTYLLAPKLS | soluble
GMTLTRDSLLTLEAYAKVRRQEHARVIAHKKRRAVSIGNHLRLLFEDETTIRYQIHEMLHIEKIFDEDGIQAELDAYLPLVPDGSNLKATLQIEYENETQRRAALARLVGIEDRVFLRVDDEAPVYAIADEDLERDTAEKTSAVHFLRFELGDAMKAKLKAGAPLSIGCDHPHYPIQAARIDPDVAASLAGDLD | soluble
FMFKHIIARTPARSLVDGLTSSHLGKPDYAKALEQHNAYIRALQTCDVDITLLPPDERFPDSVFVEDPVLCTSRCAIITRPGAESRRGETEIIEETVQRFYPGKVERIEAPGTVEAGDIMMVGDHFYIGESARTNAEGARQMIAILEKHGLSGSVVRLEKVLHLKTGLAYLEHNNLLAAGEFVSKPEFQDFNIIEIPEEESYAANCIWVNERVIMPAGYPRTREKIARLGYRVIEVDTSEYRKIDGGVSSMSLRF | soluble

Source: the DeepSol protein solubility set
